Assays:
PLCγ1 (Homo sapiens) = PLCγ1 (Homo sapiens) (UniProt P19174); details: cited from earlier work
Full-length human PLCγ1 = molecular target: T1, Full-length human PLCγ1 (human, UniProt P19174 1-1290); assay: cryo-EM structure; complex of PLCγ1 and FGFR1-1P (mixed 1:10, purified by SEC), cross-linked with BS3 and purified again; 0.6 mg/ml on grids; 25 mM HEPES, 150 mM NaCl, 2 mM TCEP, pH 7.5; no ATP; Titan Krios with Volta phase plate; map at 5–8 Å with known domain structures docked as rigid bodies; details: both partners purified
T1 construct: phospholipase C gamma 1 (PLCγ1), human, full length; YFP fusions are named only for the lipid array (LiMA), so Myc is surmised here; Cloned in a Gateway-modified pTriEx4 and purified as a His-tagged protein; No removal of tags is described; also called hPLCγ1; intact PLCγ1; source: Freestyle 293F cells, transfected, purified (HisTrap, Superdex 200)
T1 sequence (looked up): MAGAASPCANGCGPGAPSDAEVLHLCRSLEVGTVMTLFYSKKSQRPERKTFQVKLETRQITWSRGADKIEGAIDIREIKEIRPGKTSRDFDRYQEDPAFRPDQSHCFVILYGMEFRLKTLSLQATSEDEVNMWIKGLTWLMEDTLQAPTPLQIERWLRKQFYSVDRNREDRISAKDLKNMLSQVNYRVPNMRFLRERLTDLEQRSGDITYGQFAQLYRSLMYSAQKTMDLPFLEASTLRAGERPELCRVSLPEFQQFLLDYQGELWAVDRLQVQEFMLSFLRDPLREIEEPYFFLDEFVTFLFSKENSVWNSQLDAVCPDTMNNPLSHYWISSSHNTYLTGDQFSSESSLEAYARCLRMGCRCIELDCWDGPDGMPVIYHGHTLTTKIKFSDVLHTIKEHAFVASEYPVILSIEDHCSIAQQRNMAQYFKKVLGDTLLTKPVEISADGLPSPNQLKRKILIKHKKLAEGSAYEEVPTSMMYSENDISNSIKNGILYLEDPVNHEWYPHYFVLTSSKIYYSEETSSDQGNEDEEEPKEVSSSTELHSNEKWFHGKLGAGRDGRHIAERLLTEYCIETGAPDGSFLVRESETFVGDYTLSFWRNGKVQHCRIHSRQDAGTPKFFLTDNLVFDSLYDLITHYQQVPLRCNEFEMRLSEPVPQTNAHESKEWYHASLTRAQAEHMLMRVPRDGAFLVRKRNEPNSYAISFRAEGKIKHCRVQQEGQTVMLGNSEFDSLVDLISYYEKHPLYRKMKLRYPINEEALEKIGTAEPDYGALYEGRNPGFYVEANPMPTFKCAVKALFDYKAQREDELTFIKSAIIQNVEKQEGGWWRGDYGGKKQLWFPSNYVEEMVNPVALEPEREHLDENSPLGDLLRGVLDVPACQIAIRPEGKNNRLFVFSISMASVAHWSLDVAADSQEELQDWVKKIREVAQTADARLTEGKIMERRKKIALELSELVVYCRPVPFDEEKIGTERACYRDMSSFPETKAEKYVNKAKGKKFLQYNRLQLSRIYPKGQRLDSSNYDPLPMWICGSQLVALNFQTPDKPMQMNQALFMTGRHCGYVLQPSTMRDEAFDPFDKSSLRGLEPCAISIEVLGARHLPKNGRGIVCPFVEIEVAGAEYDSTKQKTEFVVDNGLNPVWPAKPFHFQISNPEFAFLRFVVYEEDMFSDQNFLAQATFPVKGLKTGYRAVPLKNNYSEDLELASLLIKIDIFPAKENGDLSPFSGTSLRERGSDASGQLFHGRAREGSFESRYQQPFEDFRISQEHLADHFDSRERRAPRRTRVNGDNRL

Chain of FGFR1 intracellular portion (P11362 398-822): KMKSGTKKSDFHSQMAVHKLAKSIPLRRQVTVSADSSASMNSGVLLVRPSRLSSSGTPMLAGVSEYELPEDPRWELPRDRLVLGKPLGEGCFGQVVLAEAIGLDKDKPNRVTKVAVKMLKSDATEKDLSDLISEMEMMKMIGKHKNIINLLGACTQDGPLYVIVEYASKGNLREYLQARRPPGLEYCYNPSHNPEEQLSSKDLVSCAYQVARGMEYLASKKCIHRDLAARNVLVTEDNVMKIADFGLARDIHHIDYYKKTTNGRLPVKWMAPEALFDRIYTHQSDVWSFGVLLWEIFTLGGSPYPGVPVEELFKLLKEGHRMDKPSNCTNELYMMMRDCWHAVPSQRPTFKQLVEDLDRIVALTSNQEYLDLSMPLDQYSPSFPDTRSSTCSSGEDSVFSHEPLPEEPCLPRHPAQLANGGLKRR

| Molecule | Kd (PLCγ1 (Homo sapiens)) [nM] | binding result (Full-length human PLCγ1) |
| --- | --- | --- |
| FGFR1 intracellular portion (from UniProt P11362) | 5 | – |
| Human FGFR1 kinase domain (456–774, L457V, Y463F, C488A, Y583F, C584S, Y585F, Y653F and Y654F), FGFR1-1P (domain or fragment, UniProt P11362 456-774, looked up, phosphotyrosine at 766 (pY766; FGFR1-1P), The methods call the protein in the complex FGFR1-1P, and the results speak of pY766 in its C-terminal tail; How the phosphorylation was made is not described here; also called FGFR1int; FGFRint; source: E. coli C41 (DE3), purified (HisTrap, Ulp1 cleavage, HiTrap Q, Superdex 75); not shown: His tag, N-terminal, cleaved; SUMO (from the vector pOPINS, cut by Ulp1), N-terminal, cleaved) MVAGVSEFELPEDPRWELPRDRLVLGKPLGEGAFGQVVLAEAIGLDKDKPNRVTKVAVKMLKSDATEKDLSDLISEMEMMKMIGKHKNIINLLGACTQDGPLYVIVEYASKGNLREYLQARRPPGLEFSFNPSHNPEEQLSSKDLVSCAYQVARGMEYLASKKCIHRDLAARNVLVTEDNVMKIADFGLARDIHHIDFFKKTTNGRLPVKWMAPEALFDRIYTHQSDVWSFGVLLWEIFTLGGSPYPGVPVEELFKLLKEGHRMDKPSNCTNELYMMMRDCWHAVPSQRPTFKQLVEDLDRIVALTSNQEYLDLSMPLD | – | binds |
